Source: patent US20030129724A1 (Harvard, published 2003)

T1: Recombinant FLAG-epitope tagged HDAC6 (human, UniProt Q9UBN7 1-1215)
T1 construct: Full length ORF with C-terminal FLAG tag in pBJ5, expressed in TAg Jurkat cells; also called HDAC6-FLAG; HD6
T1 sequence: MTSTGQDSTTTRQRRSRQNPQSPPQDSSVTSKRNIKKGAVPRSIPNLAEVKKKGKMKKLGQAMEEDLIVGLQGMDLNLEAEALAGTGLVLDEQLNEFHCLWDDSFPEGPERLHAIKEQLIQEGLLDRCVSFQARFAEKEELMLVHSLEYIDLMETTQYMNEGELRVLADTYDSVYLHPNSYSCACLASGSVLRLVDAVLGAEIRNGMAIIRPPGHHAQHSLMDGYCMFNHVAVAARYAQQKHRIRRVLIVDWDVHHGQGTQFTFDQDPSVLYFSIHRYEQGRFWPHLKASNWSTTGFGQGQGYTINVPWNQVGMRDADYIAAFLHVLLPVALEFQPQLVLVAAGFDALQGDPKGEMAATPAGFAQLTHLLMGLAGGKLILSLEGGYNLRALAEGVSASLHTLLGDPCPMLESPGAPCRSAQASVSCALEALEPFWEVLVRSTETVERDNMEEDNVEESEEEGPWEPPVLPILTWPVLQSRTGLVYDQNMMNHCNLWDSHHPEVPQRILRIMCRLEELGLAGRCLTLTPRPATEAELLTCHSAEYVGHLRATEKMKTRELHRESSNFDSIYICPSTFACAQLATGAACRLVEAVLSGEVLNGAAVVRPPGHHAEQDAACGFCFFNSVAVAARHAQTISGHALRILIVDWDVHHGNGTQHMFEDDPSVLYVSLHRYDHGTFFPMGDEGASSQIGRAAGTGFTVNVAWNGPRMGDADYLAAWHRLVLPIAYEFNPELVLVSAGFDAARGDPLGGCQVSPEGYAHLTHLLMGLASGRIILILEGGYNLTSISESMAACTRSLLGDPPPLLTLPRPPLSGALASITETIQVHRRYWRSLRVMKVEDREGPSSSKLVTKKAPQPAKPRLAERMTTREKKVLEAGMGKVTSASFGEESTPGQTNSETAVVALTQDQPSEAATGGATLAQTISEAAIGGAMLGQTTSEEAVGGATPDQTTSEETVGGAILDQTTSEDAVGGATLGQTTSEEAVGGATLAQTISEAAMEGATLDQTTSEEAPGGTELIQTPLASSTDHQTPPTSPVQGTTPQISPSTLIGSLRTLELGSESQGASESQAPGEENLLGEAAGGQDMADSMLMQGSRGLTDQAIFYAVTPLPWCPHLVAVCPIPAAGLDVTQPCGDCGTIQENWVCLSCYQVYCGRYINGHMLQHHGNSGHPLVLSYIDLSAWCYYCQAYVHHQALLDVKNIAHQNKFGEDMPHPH

T2: HDAC3 from calyculin A-treated cells, O15379
T2 chain: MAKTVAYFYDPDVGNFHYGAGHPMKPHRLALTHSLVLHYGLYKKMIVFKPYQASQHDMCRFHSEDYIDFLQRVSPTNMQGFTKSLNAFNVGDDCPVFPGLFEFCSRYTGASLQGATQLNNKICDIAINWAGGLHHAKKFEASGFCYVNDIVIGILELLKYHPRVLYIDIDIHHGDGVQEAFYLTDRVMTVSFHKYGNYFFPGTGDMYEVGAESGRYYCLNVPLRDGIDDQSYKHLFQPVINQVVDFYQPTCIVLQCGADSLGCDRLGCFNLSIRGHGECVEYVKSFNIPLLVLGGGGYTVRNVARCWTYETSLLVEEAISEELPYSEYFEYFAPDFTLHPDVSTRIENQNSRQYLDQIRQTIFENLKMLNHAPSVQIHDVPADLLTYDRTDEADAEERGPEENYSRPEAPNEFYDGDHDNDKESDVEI

T3: mSin3A (UniProt Q96ST3 1-1273)
T3 construct: Endogenous protein detected by Western blot in immunoprecipitates; also called co-repressor mSin3A
T3 sequence (looked up): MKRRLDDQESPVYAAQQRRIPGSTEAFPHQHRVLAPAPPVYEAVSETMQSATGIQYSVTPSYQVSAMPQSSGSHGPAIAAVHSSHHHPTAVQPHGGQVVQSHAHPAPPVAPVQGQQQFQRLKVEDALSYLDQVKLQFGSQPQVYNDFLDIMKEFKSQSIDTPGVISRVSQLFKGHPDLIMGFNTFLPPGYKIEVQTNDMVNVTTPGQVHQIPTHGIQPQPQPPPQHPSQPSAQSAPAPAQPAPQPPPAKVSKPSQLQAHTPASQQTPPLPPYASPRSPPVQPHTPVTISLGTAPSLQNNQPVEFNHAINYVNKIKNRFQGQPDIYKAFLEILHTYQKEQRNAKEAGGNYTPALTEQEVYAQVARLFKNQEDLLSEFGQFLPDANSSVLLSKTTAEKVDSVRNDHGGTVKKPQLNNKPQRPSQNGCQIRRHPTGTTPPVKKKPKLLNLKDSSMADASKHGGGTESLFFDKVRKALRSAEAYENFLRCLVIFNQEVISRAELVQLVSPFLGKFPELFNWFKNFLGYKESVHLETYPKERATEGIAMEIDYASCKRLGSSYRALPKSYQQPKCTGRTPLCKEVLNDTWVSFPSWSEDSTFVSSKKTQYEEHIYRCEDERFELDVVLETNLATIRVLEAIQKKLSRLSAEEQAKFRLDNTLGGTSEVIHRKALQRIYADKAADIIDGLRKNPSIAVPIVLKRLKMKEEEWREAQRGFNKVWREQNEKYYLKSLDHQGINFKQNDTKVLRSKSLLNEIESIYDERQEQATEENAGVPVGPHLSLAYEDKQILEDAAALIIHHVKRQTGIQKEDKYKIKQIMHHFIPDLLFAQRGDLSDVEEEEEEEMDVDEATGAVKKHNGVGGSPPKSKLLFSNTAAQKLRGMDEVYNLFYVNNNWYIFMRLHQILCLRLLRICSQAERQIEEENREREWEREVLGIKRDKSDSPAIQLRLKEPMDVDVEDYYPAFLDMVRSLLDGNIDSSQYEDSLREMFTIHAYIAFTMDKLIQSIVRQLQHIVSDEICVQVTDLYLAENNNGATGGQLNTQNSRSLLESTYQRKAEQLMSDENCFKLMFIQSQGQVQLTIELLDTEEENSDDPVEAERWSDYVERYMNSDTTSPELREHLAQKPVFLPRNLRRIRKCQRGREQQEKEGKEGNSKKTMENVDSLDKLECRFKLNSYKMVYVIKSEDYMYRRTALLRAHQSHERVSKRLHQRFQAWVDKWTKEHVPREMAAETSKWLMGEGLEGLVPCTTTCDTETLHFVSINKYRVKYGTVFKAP

B1: Recombinant FLAG-epitope tagged HDAC4 (enzyme, not shown: small tags and cut ends)
chain: MSSQSHPDGLSGRDQPVELLNPARVNHMPSTVDVATALPLQVAPSAVPMDLRLDHQFSLPVAEPALREQQLQQELLALKQKQQIQRQILIAEFQRQHEQLSRQHEAQLHEHIKQQQEMLAMKHQQELLEHQRKLERHRQEQELEKQHREQKLQQLKNKEKGKESAVASTEVKMKLQEFVLNKKKALAHRNLNHCISSDPRYWYGKTQHSSLDQSSPPQSGVSTSYNHPVLGMYDAKDDFPLRKTASEPNLKLRSRLKQKVAERRSSPLLRRKDGPVVTALKKRPLDVTDSACSSAPGSGPSSPNNSSGSVSAENGIAPAVPSIPAETSLAHRLVAREGSAAPLPLYTSPSLPNITLGLPATGPSAGTAGQQDTERLTLPALQQRLSLFPGTHLTPYLSTSPLERDGGAAHSPLLQHMVLLEQPPAQAPLVTGLGALPLHAQSLVGADRVSPSIHKLRQHRPLGRTQSAPLPQNAQALQHLVIQQQHQQFLEKHKQQFQQQQLQMNKIIPKPSEPARQPESHPEETEEELREHQALLDEPYLDRLPGQKEAHAQAGVQVKQEPIESDEEEAEPPREVEPGQRQPSEQELLFRQQALLLEQQRIHQLRNYQASMEAAGIPVSFGGHRPLSRAQSSPASATFPVSVQEPPTKPRFTTGLVYDTLMLKHQCTCGSSSSHPEHAGRIQSIWSRLQETGLRGKCECIRGRKATLEELQTVHSEAHTLLYGTNPLNRQKLDSKKLLGSLASVFVRLPCGGVGVDSDTIWNEVHSAGAARLAVGCVVELVFKVATGELKNGFAVVRPPGHHAEESTPMGFCYFNSVAVAAKLLQQRLSVSKILIVDWDVHHGNGTQQAFYSDPSVLYMSLHRYDDGNFFPGSGAPDEVGTGPGVGFNVNMAFTGGLDPPMGDAEYLAAFRTVVMPIASEFAPDVVLVSSGFDAVEGHPTPLGGYNLSARCFGYLTKQLMGLAGGRIVLALEGGHDLTAICDASEACVSALLGNELDPLPEKVLQQRPNANAVRSMEKVMEIHSKYWRCLQRTTSTAGRSLIEAQTCENEEAETVTAMASLSVGVKPAEKRPDEEPMEEEPPL
notes: Complete HDAC4 ORF with C-terminal FLAG tag in pBJ5, transiently expressed in TAg Jurkat cells (untreated) and immunoprecipitated with anti-FLAG agarose; also called HDAC4-FLAG; HDAC4-F

Key:
[1] = target: B1; assay: anti-FLAG co-immunoprecipitation from TAg Jurkat cells, Western blot
[2] = target: T1, Recombinant FLAG-epitope tagged HDAC6; assay: as above
[3] = target: T2, HDAC3 from calyculin A-treated cells, …
[4] = target: T4, CHD4 (UniProt Q14839 1-1912, limits assumed); assay: anti-FLAG co-immunoprecipitation from TAg Jurkat cells, Western blot
T4 construct: Endogenous protein detected by Western blot in immunoprecipitates; also called CHD chromodomain protein
T4 sequence (Q14839 whole entry): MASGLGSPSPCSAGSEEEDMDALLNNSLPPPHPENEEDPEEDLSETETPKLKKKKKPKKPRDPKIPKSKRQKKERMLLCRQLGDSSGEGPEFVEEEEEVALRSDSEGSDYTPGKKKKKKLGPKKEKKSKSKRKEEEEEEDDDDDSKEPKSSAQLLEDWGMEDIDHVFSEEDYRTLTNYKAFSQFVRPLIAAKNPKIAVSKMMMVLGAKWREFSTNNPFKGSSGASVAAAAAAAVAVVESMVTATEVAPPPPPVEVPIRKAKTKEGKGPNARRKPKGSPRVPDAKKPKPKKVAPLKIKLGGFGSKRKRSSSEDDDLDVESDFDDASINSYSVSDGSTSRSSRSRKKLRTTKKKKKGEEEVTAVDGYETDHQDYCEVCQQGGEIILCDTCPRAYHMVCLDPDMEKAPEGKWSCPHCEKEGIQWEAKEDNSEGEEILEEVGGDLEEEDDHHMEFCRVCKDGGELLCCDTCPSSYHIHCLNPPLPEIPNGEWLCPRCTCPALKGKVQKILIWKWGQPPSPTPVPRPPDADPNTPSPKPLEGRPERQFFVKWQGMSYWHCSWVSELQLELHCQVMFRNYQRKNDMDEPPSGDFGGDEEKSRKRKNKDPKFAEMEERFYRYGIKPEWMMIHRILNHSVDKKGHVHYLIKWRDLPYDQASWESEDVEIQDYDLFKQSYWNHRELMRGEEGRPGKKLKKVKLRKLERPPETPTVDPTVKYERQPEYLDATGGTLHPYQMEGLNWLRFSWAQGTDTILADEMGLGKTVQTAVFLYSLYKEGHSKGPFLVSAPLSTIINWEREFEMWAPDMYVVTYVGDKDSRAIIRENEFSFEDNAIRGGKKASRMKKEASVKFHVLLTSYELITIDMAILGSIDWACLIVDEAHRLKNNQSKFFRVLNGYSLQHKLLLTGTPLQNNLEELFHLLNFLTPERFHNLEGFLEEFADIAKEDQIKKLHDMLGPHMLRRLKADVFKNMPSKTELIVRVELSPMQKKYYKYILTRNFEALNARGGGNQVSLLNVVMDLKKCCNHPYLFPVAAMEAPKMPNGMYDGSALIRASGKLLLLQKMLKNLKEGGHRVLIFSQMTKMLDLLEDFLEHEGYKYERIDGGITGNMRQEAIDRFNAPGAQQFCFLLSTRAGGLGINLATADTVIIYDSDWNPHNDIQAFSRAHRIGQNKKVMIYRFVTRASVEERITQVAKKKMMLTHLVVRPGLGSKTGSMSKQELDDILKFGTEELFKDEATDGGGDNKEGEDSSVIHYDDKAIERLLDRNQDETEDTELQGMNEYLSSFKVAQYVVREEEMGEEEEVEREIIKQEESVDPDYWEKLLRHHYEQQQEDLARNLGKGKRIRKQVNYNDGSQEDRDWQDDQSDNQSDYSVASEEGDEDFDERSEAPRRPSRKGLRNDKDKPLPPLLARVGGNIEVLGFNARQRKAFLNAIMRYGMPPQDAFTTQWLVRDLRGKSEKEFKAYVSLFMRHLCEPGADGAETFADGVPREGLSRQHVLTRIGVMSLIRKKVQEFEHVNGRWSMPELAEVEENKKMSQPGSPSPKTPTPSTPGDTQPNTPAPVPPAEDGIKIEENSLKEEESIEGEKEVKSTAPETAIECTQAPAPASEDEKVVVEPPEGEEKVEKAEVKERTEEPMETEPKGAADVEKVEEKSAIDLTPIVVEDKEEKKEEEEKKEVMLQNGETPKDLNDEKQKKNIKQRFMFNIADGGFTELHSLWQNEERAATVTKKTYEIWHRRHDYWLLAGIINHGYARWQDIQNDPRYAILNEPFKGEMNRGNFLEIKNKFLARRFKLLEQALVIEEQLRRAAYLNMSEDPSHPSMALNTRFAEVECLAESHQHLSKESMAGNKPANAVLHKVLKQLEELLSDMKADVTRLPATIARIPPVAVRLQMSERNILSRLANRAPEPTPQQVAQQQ

[5] = target: T3, mSin3A; assay: anti-FLAG co-immunoprecipitation from TAg Jurkat cells, Western blot; an unexplained band of lower molecular weight was seen in the mSin3A blot
Description: Immunoprecipitates were probed with -CHD4, -mSin3A, -MTA, -RbAp48, -HDAC1, and -HDAC3 antibodies (FIG. 5B).

Binder | binding result [1] | binding result [2] | immunoprecipitated HDAC activity (release of 3H-acetic acid) [3] | binding result [4] | binding result [5]
MTA (other, UniProt Q13330 1-715, looked up, also called metastasis-associated factors (MTA)) MAANMYRVGDYVYFENSSSNPYLIRRIEELNKTANGNVEAKVVCFYRRRDISSTLIALADKHATLSVCYKAGPGADNGEEGEIEEEMENPEMVDLPEKLKHQLRHRELFLSRQLESLPATHIRGKCSVTLLNETESLKSYLEREDFFFYSLVYDPQQKTLLADKGEIRVGNRYQADITDLLKEGEEDGRDQSRLETQVWEAHNPLTDKQIDQFLVVARSVGTFARALDCSSSVRQPSLHMSAAAASRDITLFHAMDTLHKNIYDISKAISALVPQGGPVLCRDEMEEWSASEANLFEEALEKYGKDFTDIQQDFLPWKSLTSIIEYYYMWKTTDRYVQQKRLKAAEAESKLKQVYIPNYNKPNPNQISVNNVKAGVVNGTGAPGQSPGAGRACESCYTTQSYQWYSWGPPNMQCRLCASCWTYWKKYGGLKMPTRLDGERPGPNRSNMSPHGLPARSSGSPKFAMKTRQAFYLHTTKLTRIARRLCREILRPWHAARHPYLPINSAAIKAECTARLPEASQSPLVLKQAVRKPLEAVLRYLETHPRPPKPDPVKSVSSVLSSLTPAKVAPVINNGSPTILGKRSYEQHNGVDGNMKKRLLMPSRGLANHGQARHMGPSRNLLLNGKSYPTKVRLIRGGSLPPVKRRRMNWIDAPDDVFYMATEETRKIRKLLSSSETKRAARRPYKPIALRQSQALPPRPPPPAPVNDEPIVIED | no binding | no binding |  |  | 
B1 |  |  | dramatic reduction in immunoprecipitated HDAC activity | no binding | no binding
